Results published in the supplement of paper PMC10065799, “High-throughput profiling of sequence recognition by tyrosine kinases and SH2 domains using bacterial peptide display” (eLife, 2023).

Columns and labels:
AncSZ = assay: phosphorylation enrichment, bacterial display (enrichment ratio); higher = better substrate or ligand; peptides without Tyr show the background
Jak2 = Jak2 (UniProt O60674); assay: as above
EPHB1 = EPHB1 (UniProt P54762); assay: as above
Fyn = Fyn (UniProt P06241); assay: as above
c-Abl (mouse) = assay: as above
Fes = Fes (UniProt P07332); assay: as above
FGFR1 = FGFR1 (UniProt P11362); assay: as above
MERTK = MERTK (UniProt Q12866); assay: as above
FGFR3 = FGFR3 (UniProt P22607); assay: as above
EPHB2 = EPHB2 (UniProt P29323); assay: as above
Fer (mouse) = assay: as above
Hck = Hck (UniProt P08631); assay: as above
c-Src = assay: as above
Grb2 SH2 = Grb2 SH2 (UniProt P62993); assay: SH2 binding enrichment of the phosphorylated peptide, bacterial display (enrichment ratio); higher = better substrate or ligand; peptides without Tyr show the background
c-Src SH2 = assay: as above
SHP2-C SH2 = assay: as above
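Throughout, for SH2 binding enrichment of the phosphorylated peptide, bacterial display: peptide library displayed on the E. coli surface as eCPX fusions, selected cells deep-sequenced, score is each peptide's frequency after selection divided by its frequency in the input.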
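Throughout, for phosphorylation enrichment, bacterial display: 11-residue human phosphosite peptides and single-mutation variants displayed on the E. coli surface, counted by deep sequencing, each peptide's frequency after selection divided by its frequency in the unselected input library; frequency after pTyr selection over input frequency; kinase dosed for 20-30% of maximal phosphorylation in three min.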

Chain of Fes (P07332 whole entry, looked up): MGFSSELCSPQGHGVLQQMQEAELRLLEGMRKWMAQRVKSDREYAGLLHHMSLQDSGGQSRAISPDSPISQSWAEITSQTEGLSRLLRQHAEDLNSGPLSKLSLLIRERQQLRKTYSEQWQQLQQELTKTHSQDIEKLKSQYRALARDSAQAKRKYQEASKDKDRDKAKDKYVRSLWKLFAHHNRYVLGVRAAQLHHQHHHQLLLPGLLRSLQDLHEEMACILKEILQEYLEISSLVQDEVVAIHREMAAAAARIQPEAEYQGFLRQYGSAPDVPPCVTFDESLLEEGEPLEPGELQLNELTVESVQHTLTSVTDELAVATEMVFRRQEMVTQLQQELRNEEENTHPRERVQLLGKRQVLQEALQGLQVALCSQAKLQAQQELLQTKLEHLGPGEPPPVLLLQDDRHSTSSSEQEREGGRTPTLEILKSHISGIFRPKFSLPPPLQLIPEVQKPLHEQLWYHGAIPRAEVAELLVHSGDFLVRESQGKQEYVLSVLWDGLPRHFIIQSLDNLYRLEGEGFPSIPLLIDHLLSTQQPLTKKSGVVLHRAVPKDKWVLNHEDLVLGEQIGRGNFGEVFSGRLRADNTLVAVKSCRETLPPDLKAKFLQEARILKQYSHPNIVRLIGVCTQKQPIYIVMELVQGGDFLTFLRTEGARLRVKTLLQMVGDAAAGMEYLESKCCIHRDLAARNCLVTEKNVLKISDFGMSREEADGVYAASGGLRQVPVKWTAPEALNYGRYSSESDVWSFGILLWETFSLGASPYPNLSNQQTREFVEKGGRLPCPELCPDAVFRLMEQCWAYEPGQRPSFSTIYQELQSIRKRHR
Chain of Jak2 (O60674 whole entry, looked up): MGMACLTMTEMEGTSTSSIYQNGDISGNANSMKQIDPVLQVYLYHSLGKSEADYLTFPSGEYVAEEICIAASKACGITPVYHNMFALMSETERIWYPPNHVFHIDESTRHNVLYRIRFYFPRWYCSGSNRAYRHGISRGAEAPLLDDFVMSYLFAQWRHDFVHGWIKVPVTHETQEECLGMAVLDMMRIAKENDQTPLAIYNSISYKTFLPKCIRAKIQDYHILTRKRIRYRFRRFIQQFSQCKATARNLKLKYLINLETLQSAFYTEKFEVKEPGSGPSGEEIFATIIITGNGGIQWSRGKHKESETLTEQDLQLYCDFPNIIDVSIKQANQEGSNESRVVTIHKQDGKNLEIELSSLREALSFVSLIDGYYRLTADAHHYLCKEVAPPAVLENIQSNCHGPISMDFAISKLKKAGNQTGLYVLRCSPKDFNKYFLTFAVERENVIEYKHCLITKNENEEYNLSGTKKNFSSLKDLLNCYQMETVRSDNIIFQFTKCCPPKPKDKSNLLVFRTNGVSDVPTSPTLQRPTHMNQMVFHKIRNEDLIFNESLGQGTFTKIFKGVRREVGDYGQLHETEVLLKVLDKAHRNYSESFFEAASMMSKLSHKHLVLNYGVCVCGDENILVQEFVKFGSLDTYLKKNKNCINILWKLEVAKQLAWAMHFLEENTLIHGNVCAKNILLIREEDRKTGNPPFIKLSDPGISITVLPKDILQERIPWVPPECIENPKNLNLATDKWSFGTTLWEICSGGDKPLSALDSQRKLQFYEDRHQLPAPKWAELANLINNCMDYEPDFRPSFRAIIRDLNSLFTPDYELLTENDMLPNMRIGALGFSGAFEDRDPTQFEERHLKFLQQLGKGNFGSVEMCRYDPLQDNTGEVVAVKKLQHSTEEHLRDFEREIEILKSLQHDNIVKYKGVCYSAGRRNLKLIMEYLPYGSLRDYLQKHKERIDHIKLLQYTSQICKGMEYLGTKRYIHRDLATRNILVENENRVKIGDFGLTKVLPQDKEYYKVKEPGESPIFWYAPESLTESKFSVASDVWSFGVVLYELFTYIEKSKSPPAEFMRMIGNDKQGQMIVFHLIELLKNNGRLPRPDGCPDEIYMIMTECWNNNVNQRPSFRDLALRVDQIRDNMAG
Chain of EPHB2 (P29323 whole entry, looked up): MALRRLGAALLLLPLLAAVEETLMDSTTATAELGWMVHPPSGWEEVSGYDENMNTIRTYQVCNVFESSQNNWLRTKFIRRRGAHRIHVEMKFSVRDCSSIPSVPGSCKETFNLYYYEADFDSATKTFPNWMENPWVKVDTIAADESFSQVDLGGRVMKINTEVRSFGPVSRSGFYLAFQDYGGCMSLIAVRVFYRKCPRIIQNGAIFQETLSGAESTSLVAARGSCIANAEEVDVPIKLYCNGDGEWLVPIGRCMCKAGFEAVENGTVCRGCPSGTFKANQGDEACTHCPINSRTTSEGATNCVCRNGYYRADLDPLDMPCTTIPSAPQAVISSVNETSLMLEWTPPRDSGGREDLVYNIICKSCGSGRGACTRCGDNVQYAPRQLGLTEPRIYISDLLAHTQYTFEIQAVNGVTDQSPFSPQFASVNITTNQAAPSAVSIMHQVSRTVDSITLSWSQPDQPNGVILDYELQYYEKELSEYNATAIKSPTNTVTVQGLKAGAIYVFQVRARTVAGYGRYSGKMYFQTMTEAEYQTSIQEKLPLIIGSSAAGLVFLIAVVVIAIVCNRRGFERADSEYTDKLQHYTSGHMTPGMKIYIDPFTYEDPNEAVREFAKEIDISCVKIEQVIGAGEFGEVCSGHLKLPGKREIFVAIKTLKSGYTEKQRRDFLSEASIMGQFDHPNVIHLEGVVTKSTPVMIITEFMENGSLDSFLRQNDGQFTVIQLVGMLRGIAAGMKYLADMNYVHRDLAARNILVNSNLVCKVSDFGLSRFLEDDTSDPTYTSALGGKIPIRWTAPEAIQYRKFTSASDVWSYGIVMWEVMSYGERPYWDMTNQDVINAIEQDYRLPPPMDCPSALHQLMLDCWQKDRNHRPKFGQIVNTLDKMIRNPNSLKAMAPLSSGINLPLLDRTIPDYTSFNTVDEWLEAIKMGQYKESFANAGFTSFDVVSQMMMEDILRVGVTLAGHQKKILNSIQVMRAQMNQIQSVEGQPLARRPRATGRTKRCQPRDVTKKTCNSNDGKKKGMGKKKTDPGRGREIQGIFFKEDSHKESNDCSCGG
Chain of FGFR1 (P11362 whole entry, looked up): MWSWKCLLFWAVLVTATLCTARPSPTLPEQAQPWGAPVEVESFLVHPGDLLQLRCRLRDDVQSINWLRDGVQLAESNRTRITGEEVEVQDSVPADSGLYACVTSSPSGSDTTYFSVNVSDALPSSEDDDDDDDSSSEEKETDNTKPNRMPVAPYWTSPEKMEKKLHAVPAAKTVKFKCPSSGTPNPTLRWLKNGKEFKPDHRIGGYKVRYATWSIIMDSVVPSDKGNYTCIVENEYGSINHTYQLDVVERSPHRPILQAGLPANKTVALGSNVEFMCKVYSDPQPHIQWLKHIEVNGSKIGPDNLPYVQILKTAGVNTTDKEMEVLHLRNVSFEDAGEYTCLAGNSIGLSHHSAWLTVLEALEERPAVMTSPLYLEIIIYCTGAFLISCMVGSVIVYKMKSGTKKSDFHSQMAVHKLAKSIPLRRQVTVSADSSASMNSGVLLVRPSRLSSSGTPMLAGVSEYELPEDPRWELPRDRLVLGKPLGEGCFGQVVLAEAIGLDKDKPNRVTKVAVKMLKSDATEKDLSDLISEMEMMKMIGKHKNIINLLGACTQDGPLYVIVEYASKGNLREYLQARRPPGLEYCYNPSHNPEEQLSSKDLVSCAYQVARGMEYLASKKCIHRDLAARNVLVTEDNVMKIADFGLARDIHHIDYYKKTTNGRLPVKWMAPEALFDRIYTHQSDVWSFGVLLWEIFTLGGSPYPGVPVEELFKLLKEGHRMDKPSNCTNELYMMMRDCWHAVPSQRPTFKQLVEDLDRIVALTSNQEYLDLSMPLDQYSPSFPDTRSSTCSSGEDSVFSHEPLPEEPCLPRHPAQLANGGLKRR
Chain of Hck (P08631 whole entry, looked up): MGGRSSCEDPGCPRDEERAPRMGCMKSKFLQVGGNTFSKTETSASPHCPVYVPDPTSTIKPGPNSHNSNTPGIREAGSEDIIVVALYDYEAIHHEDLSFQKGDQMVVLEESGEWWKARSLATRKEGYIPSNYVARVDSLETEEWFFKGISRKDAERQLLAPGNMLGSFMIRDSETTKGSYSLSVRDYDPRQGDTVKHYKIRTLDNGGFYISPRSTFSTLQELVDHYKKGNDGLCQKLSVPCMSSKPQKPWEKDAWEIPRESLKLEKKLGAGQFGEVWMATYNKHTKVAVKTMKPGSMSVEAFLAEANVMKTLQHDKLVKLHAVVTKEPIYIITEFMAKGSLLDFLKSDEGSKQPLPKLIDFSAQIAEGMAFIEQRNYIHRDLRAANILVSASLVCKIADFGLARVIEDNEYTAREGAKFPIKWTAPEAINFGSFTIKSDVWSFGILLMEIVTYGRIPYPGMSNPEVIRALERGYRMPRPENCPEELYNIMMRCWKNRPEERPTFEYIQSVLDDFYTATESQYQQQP
Chain of Fyn (P06241 whole entry, looked up): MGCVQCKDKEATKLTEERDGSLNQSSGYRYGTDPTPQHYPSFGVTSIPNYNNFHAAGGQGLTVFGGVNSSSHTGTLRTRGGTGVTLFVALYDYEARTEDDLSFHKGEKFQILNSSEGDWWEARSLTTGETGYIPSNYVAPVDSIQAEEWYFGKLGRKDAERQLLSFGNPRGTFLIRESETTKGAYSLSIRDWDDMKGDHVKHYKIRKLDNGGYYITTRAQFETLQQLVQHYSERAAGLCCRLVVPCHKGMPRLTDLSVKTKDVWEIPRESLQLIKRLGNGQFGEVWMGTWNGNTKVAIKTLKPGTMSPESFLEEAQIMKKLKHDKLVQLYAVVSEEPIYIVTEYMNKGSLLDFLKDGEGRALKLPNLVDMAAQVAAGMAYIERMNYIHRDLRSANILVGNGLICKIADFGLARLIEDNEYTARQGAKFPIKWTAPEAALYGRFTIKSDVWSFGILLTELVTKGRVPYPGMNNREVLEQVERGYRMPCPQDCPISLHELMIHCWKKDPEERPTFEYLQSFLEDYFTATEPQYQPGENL

Sequence	SH2 binding enrichment (Grb2 SH2)	SH2 binding enrichment (c-Src SH2)	SH2 binding enrichment (SHP2-C SH2)	phosphorylation enrichment (AncSZ)	phosphorylation enrichment (Jak2)	phosphorylation enrichment (EPHB1)	phosphorylation enrichment (Fyn)	phosphorylation enrichment (c-Abl (mouse))	phosphorylation enrichment (Fes)	phosphorylation enrichment (FGFR1)	phosphorylation enrichment (MERTK)	phosphorylation enrichment (FGFR3)	phosphorylation enrichment (EPHB2)	phosphorylation enrichment (Fer (mouse))	phosphorylation enrichment (Hck)	phosphorylation enrichment (c-Src)
RTVPLYESPRK [DDB1_Y718]	0.898	0.57	1.01	1.31	0.833	20.7	3.13	26	1.77	0.374	7.82	0.577	26.6	16	10.5	3.79
SADIAYNYRHG [PAH_Y166_F161S]	0.817	0.445	0.699	0.488	0.435	0.333	0.345	0.508	0.498	0.362	0.329	0.391	0.378	0.469	0.344	0.388
SAEEDYKADAK [KCNT1_Y876_M877K]	0.874	0.477	0.618	1.18	1.07	0.635	0.534	0.831	1.28	0.464	0.497	0.684	0.502	0.465	0.536	0.513
SAGSSYSISSI [PAX5_Y179_G183S]	0.66	0.537	0.554	0.65	0.697	0.41	0.434	0.583	0.686	0.368	0.492	0.533	0.451	0.385	0.431	0.42
SARFRYLMAEK [LDHB_Y173]	0.952	0.543	0.508	0.695	0.692	0.436	0.365	0.566	0.652	0.352	0.397	0.469	0.467	0.348	0.435	0.436
SDPIVYTLENI [EMR1_Y534_I533V]	0.768	0.563	0.709	1.09	1.2	0.465	4.76	0.873	1.69	0.553	0.546	0.755	0.523	2.35	0.676	4.06
SERNNYSRVAN [CWC22_Y797]	0.747	1.46	5.32	0.501	0.461	0.503	0.347	0.51	0.557	0.435	0.391	0.456	0.59	0.422	0.382	0.356
SGIYQYSIAKF [FOXL2_Y83_I84S]	0.994	2.06	11.8	1.83	1.04	4.84	4.54	7.69	1.18	1.71	9.44	1.46	2.75	13.4	5.59	4.12
SGVNKYSTAFG [GJB3_Y16]	0.84	0.428	0.658	0.613	0.604	0.375	0.437	0.461	0.614	0.4	0.425	0.454	0.384	0.394	0.409	0.434
SHLEDYPFDAE [AKR1B10_Y310_N313D]	0.746	0.471	0.842	0.986	1.3	0.516	0.485	0.672	1.14	0.467	0.369	0.714	0.554	0.469	0.448	0.462

Now from value to sequence, other results behind:

SH2 binding enrichment (Grb2 SH2)	SH2 binding enrichment (c-Src SH2)	SH2 binding enrichment (SHP2-C SH2)	Sequence	phosphorylation enrichment (AncSZ)	phosphorylation enrichment (Jak2)	phosphorylation enrichment (EPHB1)	phosphorylation enrichment (Fyn)	phosphorylation enrichment (c-Abl (mouse))	phosphorylation enrichment (Fes)	phosphorylation enrichment (FGFR1)	phosphorylation enrichment (MERTK)	phosphorylation enrichment (FGFR3)	phosphorylation enrichment (EPHB2)	phosphorylation enrichment (Fer (mouse))	phosphorylation enrichment (Hck)	phosphorylation enrichment (c-Src)
0.8	0.994	0.603	RTTIHYNYMCN [TP53_Y234_C229R]	1.81	1.57	1.48	1.16	1.2	2.24	0.892	0.901	1.6	1.13	1.25	1.11	0.649
0.836	1.03	0.925	RVVVPYEPPEV [TP53_Y220_S215R]	1.01	0.892	0.523	0.554	0.613	0.99	0.631	0.468	0.657	0.505	0.409	0.454	0.36
0.716	0.409	0.52	SEHLTYLEFKS [RASGRP1_Y215]	1.41	1.33	1.02	6.61	1.09	1.58	0.729	0.459	1.16	0.838	0.62	5.7	5.56
0.988	0.589	1.21	SFLFRYADDSF [RAB3C_Y50]	1.01	0.835	0.545	0.45	0.582	1.01	0.475	0.45	0.582	0.515	0.414	0.525	0.434
0.775	0.489	0.724	SGGLDYGMVGG [TNRC6B_Y1382_M1380L]	0.765	0.636	0.527	2.21	0.523	0.722	0.446	0.43	0.537	0.973	0.476	0.76	1.88
0.799	0.492	0.74	SGLDSYVRSLP [TRAPPC1_Y133_R129G]	0.618	0.443	0.379	0.424	0.426	0.651	0.453	0.402	0.48	0.581	0.445	0.438	0.359
